Results on nine molecules are retold here after publication PMC8248988, “A signal capture and proofreading mechanism for the KDEL-receptor explains selectivity and dynamic range in ER retrieval” (eLife, 2021).

Residue numbers refer to the chain shown, from its start. Ends that are not written are not given here. Where only a bound is given, the exact number is not on record here.

For test [1], the target named is TAEHDEL retrieval-signal peptide (unlabelled) K to H at position -4 relative to TAEKDEL (K651H in human BiP numbering) (UniProt P11021). In words: radioligand filter-binding assay, competition of unlabelled peptide against [3H]-TAEHDEL. Conditions: pH 5.4; 20°C; 40 mM Sodium Chloride; 20 mM MES pH 5.4 (default assay buffer 'unless stated otherwise'; pH not restated for this experiment).

For test [2], the target named is TAEKDEL retrieval-signal peptide (unlabelled) (UniProt P11021). Described as above. Conditions: pH 5.4; 20°C; 40 mM Sodium Chloride; 20 mM MES pH 5.4 (default assay buffer 'unless stated otherwise'; pH not restated for this experiment).
Test [3] has as its target TAERDEL retrieval-signal peptide (unlabelled) K to R at position -4 relative to TAEKDEL (K651R in human BiP numbering) (UniProt P11021). Described as above. Particulars: pH 5.4; 20°C; 40 mM Sodium Chloride; 20 mM MES pH 5.4 (default assay buffer 'unless stated otherwise'; pH not restated for this experiment).
For test [4], the target named is [3H]-TAEHDEL retrieval-signal peptide K to H at position -4 relative to TAEKDEL (K651H in human BiP numbering) (UniProt P11021). The test is described as follows: radioligand filter-binding assay, direct titration (scintillation counting). Conditions: 20°C, 40 mM Sodium Chloride, 20 mM MES pH 5.4 (default), the buffers used for the other pH values of Figure 3f (up to pH 7.0) are not stated.

In test [5] the target is [3H]-TAEKDEL retrieval-signal peptide (UniProt P11021). The test is described as above. Conditions: pH 5.4; 20°C; 40 mM Sodium Chloride; 20 mM MES pH 5.4 (default); the buffers used for the other pH values of Figure 3f (up to pH 7.0) are not stated.
The target is the same in test [6]. The test is described as follows: in vitro binding assay of Bräuer et al. 2019 (not described here; presumably the same [3H]-TAEKDEL filter-binding assay). Conditions: pH 6.4; cited from earlier work.
The target of a further test is T1, chicken KDELR2 (Gallus gallus, UniProt Q5ZKX9).
T1 construct: GFP (of the pDDGFP vector); made in house; host or cells: Saccharomyces cerevisiae Bj5460
T1 sequence (Q5ZKX9 1-212): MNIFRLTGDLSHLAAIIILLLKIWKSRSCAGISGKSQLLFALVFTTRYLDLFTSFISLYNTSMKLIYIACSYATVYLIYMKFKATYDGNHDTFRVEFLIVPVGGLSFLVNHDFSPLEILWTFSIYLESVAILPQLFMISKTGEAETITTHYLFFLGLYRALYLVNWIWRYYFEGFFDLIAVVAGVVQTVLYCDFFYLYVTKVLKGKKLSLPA
In words: Competition binding assay, [3H]-TAEHDEL against unlabelled peptide. Conditions: for IC50: competition with [3H]-TAEHDEL, free (COOH) or amidated (CONH) C-terminus, pH 5.4, read-out: Competitor peptide IC50. From the text:
(§1) Figure 1. ER retrieval signal abundance and affinity are not correlated. (a) Sequence logos for ER resident proteins with C-terminal KDEL retrieval signals and variants thereof calculated using frequency or protein abundance ([Itzhak et al., 2017]; [Itzhak et al., 2016]). (b) Combined cellular concentrations of ER resident proteins with canonical KDEL, RDEL, and HDEL retrieval sequences in HeLa cells and mouse brain. (c) Competition binding assays for [^3H]-TAEHDEL and unlabelled TAEKDEL, TAERDEL, and TAEHDEL to the KDEL receptor. IC50 values for the competing peptides were used to calculate the apparent KDwith the Cheng-Prusoff equation ([Cheng and Prusoff, 1973]). (d) Endogenous KDEL receptor redistribution was measured in COS-7 cells in the absence (-ligand) or presence of K/R/H/A/DDEL (mScarlet-xDEL^sec). TGN46 was used as a Golgi marker. Scale bar is 10 µm. (e) The mean difference for K/R/H/A/DDEL comparisons against the shared no ligand control are shown as Cummings estimation plots. The individual data points for the fraction of KDEL receptor fluorescence in the Golgi are plotted on the upper axes with sample sizes and p values. Figure 1—source data 1. Source data for the ligand-induced KDELR receptor retrieval assays in Figure 1e. Figure 1—figure supplement 1. Abundance of ER resident proteins and chaperones in human cells and mouse brain. (a) The mean concentration of ER resident chaperones with the indicated ER retrieval sequence variant is plotted in the bar graph ([Itzhak et al., 2017]; [Itzhak et al., 2016]). […] Endogenous ER chaperone secretion was measured by western blotting after challenge with different retrieval signals, and plotted as a bar graph showing mean ± SEM (n = 3). […] (a) Distribution of human KDELR1 and (b) KDELR2 was measured in COS-7 cells in the absence (-ligand) or presence of K/R/H/A/DDEL retrieval signals (K/R/H/A/DDEL^sec). […] The fraction of KDEL receptor localised to the Golgi was measured before (no ligand) and after challenge with different retrieval signals as indicated. […]

For test [7], the system named is endogenous KDEL receptor in COS-7 cells. In words: ER retrieval assay, endogenous KDEL receptor redistribution. In kind it is cell-based, African green monkey. Conditions: COS-7 cells.
Description: as §1, with “1.” for “1. Abundance of ER resident proteins and chaperones in human cells and mouse brain. (a) The mean concentration of ER resident chaperones with the indicated ER retrieval sequence variant is plotted in the bar graph ([Itzhak et al., 2017]; [Itzhak et al., 2016]).”
To create KDELR1-GFP and KDELR2-GFP, the reading frames for Homo sapiens KDELR1 (Uniprot: P24390) and KDELR2 (Uniprot: P33947) were cloned into the pEF5/FRT low level mammalian expression vector with a C-terminal 20 amino acid linker made up of 5 copies of Gly-Ser-Ser-Ser followed by GFP. […]

For the next test, the target named is T2, human KDELR1 (Homo sapiens, UniProt P24390).
T2 construct: expressed in transfected cells; host or cells: COS-7
The test is described as follows: ER retrieval assay, WT KDELR1-GFP. Particulars: COS-7 cells, WT human KDEL receptor-GFP with mScarlet ligand. The format is cell-based. From the text:
To create KDELR1-GFP and KDELR2-GFP, the reading frames for Homo sapiens KDELR1 (Uniprot: P24390) and KDELR2 (Uniprot: P33947) were cloned into the pEF5/FRT low level mammalian expression vector with a C-terminal 20 amino acid linker made up of 5 copies of Gly-Ser-Ser-Ser followed by GFP. Specific point mutations were introduced using the Quickchange protocol (Stratagene) and are described in the key resources table and figures. To create the mScarlet-KDEL^sec ligand construct, mScarlet with an N-terminal hGH signal peptide and the 16 C-terminal residues of human BiP at its C-terminus, containing the KDEL signal, was cloned into the pcDNA3.1 vector. […] The Golgi marker protein TGN46 was detected by antibody (sheep anti-TGN46 AHP500G; AbD Serotec) and an Alexa 647 conjugated secondary anti-sheep secondary (A-21448, Invitrogen). In Figure 1d and e, endogenous KDELR was detected by antibody (mouse anti-KDELR ADI-VAA-PT048; Enzo Life Sciences) and Alexa 488 conjugated anti-mouse secondary antibody (A-21202, Invitrogen). For retrieval assays in other figures, KDELR-GFP fusion proteins were directly detected by fluorescence. The mScarlet-xDEL fusion proteins were directly detected by fluorescence. […] The fraction of KDEL receptor in the Golgi apparatus was calculated by dividing the Golgi signal by the total cell signal. […]

The target in test [8] is T3, TAEHDEL retrieval signal peptide.
T3 chain: TAEHDEL
The test is described as follows: [3H]-peptide filter binding assay, pH 5.4.

For test [9], the target named is T4, TAEKDEL retrieval signal peptide (BiP) (Homo sapiens).
T4 chain: TAEKDEL
The test is described as follows: [3H]-peptide filter binding assay, pH 5.4.

Sequence of [3H]-TAEKDEL retrieval-signal peptide (P11021 whole entry, looked up, tested part not stated): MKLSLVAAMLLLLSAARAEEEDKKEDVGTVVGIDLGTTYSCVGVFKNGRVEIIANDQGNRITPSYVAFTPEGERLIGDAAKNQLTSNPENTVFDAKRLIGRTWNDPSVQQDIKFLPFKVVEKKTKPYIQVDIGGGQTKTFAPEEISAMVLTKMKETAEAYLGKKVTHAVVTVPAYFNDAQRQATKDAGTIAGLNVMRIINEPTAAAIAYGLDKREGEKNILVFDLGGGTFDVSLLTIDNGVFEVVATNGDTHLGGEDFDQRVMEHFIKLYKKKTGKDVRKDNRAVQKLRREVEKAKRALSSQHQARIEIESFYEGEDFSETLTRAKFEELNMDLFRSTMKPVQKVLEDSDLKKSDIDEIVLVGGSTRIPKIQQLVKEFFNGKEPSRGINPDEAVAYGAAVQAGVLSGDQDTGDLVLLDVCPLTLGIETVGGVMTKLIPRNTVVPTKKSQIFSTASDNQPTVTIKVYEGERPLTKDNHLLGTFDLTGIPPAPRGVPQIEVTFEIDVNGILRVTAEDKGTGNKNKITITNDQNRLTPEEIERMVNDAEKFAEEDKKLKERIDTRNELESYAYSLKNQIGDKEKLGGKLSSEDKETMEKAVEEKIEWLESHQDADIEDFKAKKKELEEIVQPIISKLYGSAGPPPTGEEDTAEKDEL
Sequence of [3H]-TAEHDEL retrieval-signal peptide K to H at position -4 relative to TAEKDEL (K651H in human BiP numbering) (P11021 whole entry K651H, looked up, tested part not stated): as the sequence (P11021 whole entry, looked up, tested part not stated) above, with K651H counted along it
T2 sequence (P24390 whole entry): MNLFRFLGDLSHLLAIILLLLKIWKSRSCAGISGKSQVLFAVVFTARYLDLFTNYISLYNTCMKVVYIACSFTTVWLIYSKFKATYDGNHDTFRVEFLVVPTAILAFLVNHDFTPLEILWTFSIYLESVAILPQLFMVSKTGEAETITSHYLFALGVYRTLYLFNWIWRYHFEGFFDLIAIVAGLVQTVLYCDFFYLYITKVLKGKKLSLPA
Sequence of TAERDEL retrieval-signal peptide (unlabelled) K to R at position -4 relative to TAEKDEL (K651R in human BiP numbering) (P11021 whole entry K651R, looked up, tested part not stated): as the sequence (P11021 whole entry, looked up, tested part not stated) above, with K651R counted along it
Sequence of TAEKDEL retrieval-signal peptide (unlabelled) (P11021 whole entry, looked up, tested part not stated): as the sequence (P11021 whole entry, looked up, tested part not stated) above
Sequence of TAEHDEL retrieval-signal peptide (unlabelled) K to H at position -4 relative to TAEKDEL (K651H in human BiP numbering) (P11021 whole entry K651H, looked up, tested part not stated): as the sequence (P11021 whole entry, looked up, tested part not stated) above, with K651H counted along it

As usually defined, the KD is the equilibrium constant for the complex coming apart. A low value points to tighter binding. “KDEL receptor 2 (KDELR2, ER lumen protein-retaining receptor 2), wild type”: the results for the “KD (apparent, from IC50)” value in test [1], in test [2] and in test [3] were “KD 0.24 µM”, “KD 1.94 µM” and “KD 2.71 µM”, respectively. The dissociation constant (KD) in test [4] (pH 5.4) is 0.26 ± 0.04 µM; in test [5], 1.9 ± 0.46 µM. For the same molecule, the “fraction of maximal binding” value was ~ 60% maximal binding in test [4] (pH 6.4) and below 20% in [6].
As a reminder, the IC50 is the point on the concentration scale where inhibition reaches its midpoint. For the molecule TAEHDEL-NH2 [HDEL^CONH, TAEHDEL-CONH], the half-maximal inhibitory concentration (IC50) at chicken KDELR2 is 1750 ± 170 µM.
With TAEKDEL, the “localisation of the mScarlet ligand (in words)” value in test [7] is listed as “retrieved to the ER”.
For the molecule “TAEKDEL-CONH [KDEL^CONH, C-amidated peptide variant]”, the “binding of C-terminally amidated peptide to wild-type receptor (in words)” value on chicken KDELR2 (amidated C-terminus) is recorded as “completely abolished binding”.
Turning to TAEKDEL-OH [KDEL, TAEKDEL], the half-maximal inhibitory concentration (IC50) on chicken KDELR2 worked out at 152 ± 21.7 µM.
As to “pcDNA3.1 hGHss-mScarlet-S. cerevisiae BiP667-682 [FEHDEL]”, on human KDELR1, the “ligand-induced receptor retrieval to the ER (in words)” value is “functional”.

B1: KDEL receptor 2 (protein)
chain: T1 sequence (Q5ZKX9 1-212) with E117A
As usually defined, the Kd is the equilibrium constant for the complex coming apart. Take B1: the Kd was 0.52 µM in test [8] and around 9.3 µM in test [9].

B2: KDEL receptor 2 (protein)
chain: T1 sequence (Q5ZKX9 1-212) with E117D
As to B2, the figures for the Kd in test [8] and in test [9] were 0.52 µM and 2.1 µM, respectively.

B3: KDEL receptor 2 (protein)
chain: T1 sequence (Q5ZKX9 1-212) with W120F
Take B3: binding in test [8] was put at a Kd of 5.5 µM.
